Test results: paper PMC5587741, “CLEC14a-HSP70-1A interaction regulates HSP70-1A-induced angiogenesis” (Scientific Reports, 2017)

Molecular target: T1, recombinant human HSP70-1A (rhHSP70-1A) (human, UniProt P0DMV8 1-641)
T1 construct: commercially available purified recombinant human HSP70-1A (HSPA1A); source: bought: Sino Biological Inc
Assay: BLI; Octet RED96; rhCLEC14a-ECD immobilised on amine-reactive biosensors; rhHSP70-1A 200-25 nM in 2-fold dilutions in 1x kinetics buffer; 1:1 binding model
Details: both partners purified

T1 sequence (P0DMV8 whole entry): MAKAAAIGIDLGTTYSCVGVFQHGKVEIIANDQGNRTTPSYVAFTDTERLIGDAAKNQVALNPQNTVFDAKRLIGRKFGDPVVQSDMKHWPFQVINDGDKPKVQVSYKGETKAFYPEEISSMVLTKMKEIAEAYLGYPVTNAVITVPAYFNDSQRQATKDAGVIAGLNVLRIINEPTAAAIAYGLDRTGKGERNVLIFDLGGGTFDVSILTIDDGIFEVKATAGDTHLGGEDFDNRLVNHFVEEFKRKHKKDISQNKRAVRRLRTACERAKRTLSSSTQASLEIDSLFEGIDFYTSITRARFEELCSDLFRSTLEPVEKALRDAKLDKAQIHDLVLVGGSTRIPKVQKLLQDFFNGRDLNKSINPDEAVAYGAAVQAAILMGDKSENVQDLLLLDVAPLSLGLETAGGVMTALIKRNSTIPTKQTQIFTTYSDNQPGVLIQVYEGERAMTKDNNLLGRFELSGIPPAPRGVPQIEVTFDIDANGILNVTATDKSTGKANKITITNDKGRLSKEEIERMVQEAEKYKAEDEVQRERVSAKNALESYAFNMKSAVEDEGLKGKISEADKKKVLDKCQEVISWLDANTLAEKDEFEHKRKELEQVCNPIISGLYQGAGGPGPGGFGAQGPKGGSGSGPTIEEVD

B1: recombinant human CLEC14a extracellular domain (rhCLEC14a-ECD) (domain or fragment, UniProt Q86T13 22-397, looked up)
chain: EHPTADRAGCSASGACYSLHHATMKRQAAEEACILRGGALSTVRAGAELRAVLALLRAGPGPGGGSKDLLFWVALERRRSHCTLENEPLRGFSWLSSDPGGLESDTLQWVEEPQRSCTARRCAVLQATGGVEPAGWKEMRCHLRANGYLCKYQFEVLCPAPRPGAASNLSYRAPFQLHSAALDFSPPGTEVSALCRGQLPISVTCIADEIGARWDKLSGDVLCPCPGRYLRAGKCAELPNCLDDLGGFACECATGFELGKDGRSCVTSGEGQPTLGGTGVPTRRPPATATSPVPQRTWPIRVDEKLGETPLVPEQDNSVTSIPEIPRWGSQSTMSTLQMSLQAESKATITPSGSVISKFNSTTSSATPQAFDSSSA
notes: commercially available purified recombinant human CLEC14a extracellular domain; source: bought: Abcam
Kd: ~8 nM
